In paper PMC4464616, “SIRT6 protein deacetylase interacts with MYH DNA glycosylase, APE1 endonuclease, and Rad9–Rad1–Hus1 checkpoint clamp” (BMC Molecular Biology, 2015):
Changes are numbered by the printed parent chain.

T1: mouse Myh (mMyh), recombinant (mouse, UniProt Q99P21 1-515)
T1 sequence (looked up): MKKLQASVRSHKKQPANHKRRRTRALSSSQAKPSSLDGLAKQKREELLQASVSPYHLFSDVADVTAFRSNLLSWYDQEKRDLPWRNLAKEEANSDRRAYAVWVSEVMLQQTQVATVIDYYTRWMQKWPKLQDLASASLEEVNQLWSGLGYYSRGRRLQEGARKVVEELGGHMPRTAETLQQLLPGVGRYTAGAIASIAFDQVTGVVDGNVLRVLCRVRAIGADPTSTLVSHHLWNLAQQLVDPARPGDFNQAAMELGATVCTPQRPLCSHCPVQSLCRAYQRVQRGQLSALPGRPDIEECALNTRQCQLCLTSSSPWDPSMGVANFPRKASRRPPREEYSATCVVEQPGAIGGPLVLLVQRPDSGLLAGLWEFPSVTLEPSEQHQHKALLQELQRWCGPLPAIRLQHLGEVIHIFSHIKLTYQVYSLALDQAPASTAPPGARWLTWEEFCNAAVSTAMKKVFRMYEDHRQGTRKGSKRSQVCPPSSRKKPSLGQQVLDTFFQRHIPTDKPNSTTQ

T2: GST-hRad9 (human, UniProt Q99638 1-391)
T2 construct: human Rad9, subunit of the Rad9-Rad1-Hus1 checkpoint clamp; also called GST-Rad9; GST-tagged hRad9; source: immobilised on beads
T2 sequence (looked up): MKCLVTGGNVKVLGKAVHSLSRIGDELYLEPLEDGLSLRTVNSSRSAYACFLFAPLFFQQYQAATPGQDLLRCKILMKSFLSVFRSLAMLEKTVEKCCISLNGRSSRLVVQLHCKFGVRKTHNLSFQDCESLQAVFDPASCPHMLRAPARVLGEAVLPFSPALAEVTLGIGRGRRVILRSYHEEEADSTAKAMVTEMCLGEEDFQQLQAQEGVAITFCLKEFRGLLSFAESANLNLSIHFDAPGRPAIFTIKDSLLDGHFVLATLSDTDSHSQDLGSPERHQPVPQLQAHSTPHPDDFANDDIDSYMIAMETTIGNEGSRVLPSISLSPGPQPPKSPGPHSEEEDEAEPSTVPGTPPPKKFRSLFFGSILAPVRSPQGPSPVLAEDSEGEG

T3: GST-hMYH(1-350) Q324H (human, UniProt Q9UIF7-3 1-350, Q324H)
T3 construct: human MutY homolog (MYH, MUTYH), residues 1-350 with Q324H, a variant found in MAP patients; also called hMYH^Q324H; Q338H according to the new nomenclature; source: purified, immobilised on beads
T3 sequence (looked up): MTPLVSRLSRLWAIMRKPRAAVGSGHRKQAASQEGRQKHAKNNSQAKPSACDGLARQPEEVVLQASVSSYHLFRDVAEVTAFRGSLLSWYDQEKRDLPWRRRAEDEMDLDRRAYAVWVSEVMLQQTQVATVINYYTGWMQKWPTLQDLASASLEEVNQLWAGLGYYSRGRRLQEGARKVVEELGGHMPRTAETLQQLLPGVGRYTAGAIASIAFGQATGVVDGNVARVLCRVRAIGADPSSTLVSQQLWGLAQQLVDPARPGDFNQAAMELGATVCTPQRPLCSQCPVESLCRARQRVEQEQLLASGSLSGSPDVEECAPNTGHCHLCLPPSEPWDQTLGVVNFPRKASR

T4: GST-hMYH(1-350) (human, UniProt Q9UIF7-3 1-350)
T4 construct: also called MYHΔC3; ΔC3; source: purified, immobilised on beads
T4 sequence (looked up): T3 sequence (looked up) with H324Q

B1: FLAG-tagged mouse Sirt6 (FLAG-mSirt6), wild type (natural protein, UniProt P59941 1-334, looked up)
chain: MSVNYAAGLSPYADKGKCGLPEIFDPPEELERKVWELARLMWQSSSVVFHTGAGISTASGIPDFRGPHGVWTMEERGLAPKFDTTFENARPSKTHMALVQLERMGFLSFLVSQNVDGLHVRSGFPRDKLAELHGNMFVEECPKCKTQYVRDTVVGTMGLKATGRLCTVAKTRGLRACRGELRDTILDWEDSLPDRDLMLADEASRTADLSVTLGTSLQIRPSGNLPLATKRRGGRLVIVNLQPTKHDRQADLRIHGYVDEVMCRLMKHLGLEIPAWDGPCVLDKALPPLPRPVALKAEPPVHLNGAVHVSYKSKPNSPILHRPPKRVKTEAAPS
notes: mouse Sirt6, full length cDNA in pcDNA3.1; about 90% pure
B2: His-tagged human Hus1 (hHus1) (natural protein, UniProt O60921 1-280, looked up)
chain: MKFRAKIVDGACLNHFTRISNMIAKLAKTCTLRISPDKLNFILCDKLANGGVSMWCELEQENFFNEFQMEGVSAENNEIYLELTSENLSRALKTAQNARALKIKLTNKHFPCLTVSVELLSMSSSSRIVTHDIPIKVIPRKLWKDLQEPVVPDPDVSIYLPVLKTMKSVVEKMKNISNHLVIEANLDGELNLKIETELVCVTTHFKDLGNPPLASESTHEDRNVEHMAEVHIDIRKLLQFLAGQQVNPTKALCNIVNNKMVHFDLLHEDVSLQYFIPALS
notes: human Hus1, subunit of the Rad9-Rad1-Hus1 checkpoint clamp; pET21a usually adds a C-terminal His6 (surmise); source: E. coli BL21-Star with pET21a-hHus1, purified
B3: GST-hRad1 (natural protein, human, UniProt O60671 1-282, looked up)
chain: MPLLTQQIQDEDDQYSLVASLDNVRNLSTILKAIHFREHATCFATKNGIKVTVENAKCVQANAFIQAGIFQEFKVQEESVTFRINLTVLLDCLSIFGSSPMPGTLTALRMCYQGYGYPLMLFLEEGGVVTVCKINTQEPEETLDFDFCSTNVINKIILQSEGLREAFSELDMTSEVLQITMSPDKPYFRLSTFGNAGSSHLDYPKDSDLMEAFHCNQTQVNRYKISLLKPSTKALVLSCKVSIRTDNRGFLSLQYMIRNEDGQICFVEYYCCPDEEVPESES
notes: human Rad1, subunit of the Rad9-Rad1-Hus1 checkpoint clamp; also called GST-Rad1; GST-tagged hRad1; source: immobilised on beads
B4: GST-hMYH(65-350) (domain or fragment, human, UniProt Q9UIF7-3 65-350, looked up)
chain: ASVSSYHLFRDVAEVTAFRGSLLSWYDQEKRDLPWRRRAEDEMDLDRRAYAVWVSEVMLQQTQVATVINYYTGWMQKWPTLQDLASASLEEVNQLWAGLGYYSRGRRLQEGARKVVEELGGHMPRTAETLQQLLPGVGRYTAGAIASIAFGQATGVVDGNVARVLCRVRAIGADPSSTLVSQQLWGLAQQLVDPARPGDFNQAAMELGATVCTPQRPLCSQCPVESLCRARQRVEQEQLLASGSLSGSPDVEECAPNTGQCHLCLPPSEPWDQTLGVVNFPRKASR
notes: also called MYHΔC5; ΔC5; source: purified, immobilised on beads

Legend:
[1] = biological target: T1, mouse Myh (mMyh), recombinant; test: cell-based or functional assay
[2] = biological target: human APE1 (hAPE1), recombinant (human, UniProt P27695 1-318); test: cell-based or functional assay
GST-hRad9 = biological target: T2, GST-hRad9; test: pull-down; GST fusion protein immobilised on beads; 50 ug/ml ethidium bromide added for 30 min before the partner; bound protein detected by Western blot (FLAG, hAPE1 or His antibody); in some panels a further purified partner (hAPE1, mSirt6, hHus1) was added; details: both partners purified
GST-hMYH(1-350) Q324H = biological target: T3, GST-hMYH(1-350) Q324H; test: as above; details: both partners purified
GST-hMYH(1-350) = biological target: T4, GST-hMYH(1-350); test: as above; details: both partners purified
[3] = biological target: B1; test: as above; details: both partners purified

human APE1 (hAPE1), recombinant, sequence (P27695 whole entry, the tested form may be a part): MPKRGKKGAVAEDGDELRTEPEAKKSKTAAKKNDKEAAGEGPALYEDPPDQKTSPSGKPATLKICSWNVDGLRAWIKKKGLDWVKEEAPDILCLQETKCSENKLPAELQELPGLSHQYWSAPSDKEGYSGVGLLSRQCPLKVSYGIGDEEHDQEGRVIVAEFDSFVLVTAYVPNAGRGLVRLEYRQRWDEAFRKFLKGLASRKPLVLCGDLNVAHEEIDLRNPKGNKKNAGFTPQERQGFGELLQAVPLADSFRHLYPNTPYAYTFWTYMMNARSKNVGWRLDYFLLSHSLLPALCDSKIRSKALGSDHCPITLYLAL

Binder: B1
- mMyh glycosylase activity on FAM-labeled A/G^o-DNA (0.5 nM mMyh, 1-32 nM mSirt6); fold stimulation at a Sirt6/Myh ratio of 32 [1]: 3 fold
- 3'-phosphodiesterase activity of hAPE1 on 3'-FAM-labeled U/G-DNA (0.01 nM hAPE1, 1-16 nM mSirt6); fold stimulation at a Sirt6/APE1 ratio of 400 [2]: 2 fold
- AP endonuclease activity of hAPE1 on FAM-labeled THF/G-DNA (0.002 nM hAPE1, 1-8 nM mSirt6); fold stimulation at a Sirt6/APE1 ratio of 3,000 [2]: 2 fold
- binding result (GST-hRad9): binds
- binding result (GST-hMYH(1-350) Q324H): binds
- fold stimulation of binding with a tenfold excess of hAPE1, against no hAPE1 (GST-hMYH(1-350)): 3 fold

Binder: B2
- binding result (GST-hMYH(1-350)): binds

Binder: B3
- binding result [3]: binds

Binder: B4
- binding result [3]: binds
